In the supplement of paper PMC12764529:
± gives the half width of the 95% confidence interval.

Key:
[1] = folding stability dG unfold from trypsin proteolysis; higher = more stable
Procedure, shortened: (§1)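 How resistant each design was to proteolysis was captured as K50, inferred by Bayesian fitting of sequencing counts. Unfolding free energy was then derived relative to a sequence-predicted unfolded-state K50 and a shared folded-state K50, per protease or combined. Digestion used trypsin and chymotrypsin at 11 threefold-diluted concentrations plus a no-protease condition, on mini-proteins under 80 residues without cysteine in a PA-tagged cDNA display construct. Designs were kept only when AlphaFold2 dimer inter-PAE was above 15.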

[2] = folding stability dG unfold from chymotrypsin proteolysis; higher = more stable
Procedure, shortened: as §1

[3] = folding stability dG unfold (combined trypsin and chymotrypsin); higher = more stable
Procedure, shortened: as §1

Sequence | folding stability dG unfold [1] | folding stability dG unfold [2] | folding stability dG unfold [3]
SAGGMVLVRFDSLEEAREHAELLEELGYEVELLPTEDYVLLLVRPLPLPPPTPEELAEALRNPGSALASAGG [r13_8_TrMRF] | 2.33 ± 0.062 kcal/mol | 2.671 ± 0.014 kcal/mol | 2.53 ± 0.066 kcal/mol
SAGGMVTKTYEFEGENGGKILIEVKEDPDKPVVTVKFYRPDGKPLFEAEIEADSIEDAIQQAKDLLASAGGS [r16_158_TrMRF] | 3.45 ± 0.12 kcal/mol | 3.76 ± 0.11 kcal/mol | 3.66 ± 0.13 kcal/mol
SAGGMVVRIKVKIKNPETGEVIEVEALVEVDEDGNVTITLPNGKKITLPKGAKVEIVDVEELPPEDLSAGGS [r16_223_TrROS_Hall] | 3.72 ± 0.11 kcal/mol | 3.14 ± 0.075 kcal/mol | 3.52 ± 0.093 kcal/mol
SAGGMVYVVRLRDEDGTEYTALVEEFDGIYRVRLFDEDGELVEEREFESVEEAIDALLAEGYEVEVYPSAGG [r13_315_TrMRF] | 4 ± 0.079 kcal/mol | 4.881 ± 0.035 kcal/mol | 4.66 ± 0.07 kcal/mol
SAGGMYRVKVGDDERLIDTDPENFKTLEEAVKKVAEKIKEEYPNRPELTITVEAEDGTPLATVTITLSSAGG [r13_257_JUSTAS] | 0.759 ± 0.12 kcal/mol | 0.614 ± 0.19 kcal/mol | 0.894 ± 0.29 kcal/mol
SAGGNDDDQKPKMVRVKIKYDNPDGEKYKIDEIWVMPPPFIMIRMPGNGQEIFIPPDQIKEIEIEPVSAGGS [r8_410_TrROS] | -0.149 ± 0.28 kcal/mol | 1.09 ± 0.081 kcal/mol | 0.826 ± 0.3 kcal/mol
SAGGNDDNWRVIEFTFSPGNIKPEQIRSLLENAGADRITDVEVQRTPNSYTVTFYFPNGKPVEITIPSAGGS [r8_86_TrROS] | 1.65 ± 0.038 kcal/mol | 2.37 ± 0.1 kcal/mol | 2.13 ± 0.13 kcal/mol
SAGGNFEIWRHPENGILWIEFRIPAGEPLEIPLKFKAPNGKPIKITKFHIWPMNDWWYIKFIIKIPPSAGGS [r16_499_TrROS] | 3.15 ± 0.12 kcal/mol | 2.84 ± 0.06 kcal/mol | 2.99 ± 0.25 kcal/mol
SAGGNIEVDNDMIEIPFPGGFTIMIRLPPDKGKVTVHIERDPNNPMFREFAKEIADQLPGLPVEVHPWSAGG [r13_34_TrROS] | 0.996 ± 0.11 kcal/mol | 0.414 ± 0.14 kcal/mol | 0.752 ± 0.08 kcal/mol
SAGGNIKIEDIEIMKPMKDPDGNPDKPMYMVSIRIEHEYKYPDGPMKHKHEIMIMMPPNDPDEALDELSAGG [r13_149_TrROS] | 0.897 ± 0.081 kcal/mol | 0.758 ± 0.041 kcal/mol | 0.877 ± 0.11 kcal/mol
SAGGNIRIWFPGREIPIGGTVEDIKANIRKWLGRPIPEELIEQIDKGKTVSEIVDWLRKRGFPIRIWSAGGS [r16_601_TrROS] | 1.78 ± 0.031 kcal/mol | 1.94 ± 0.16 kcal/mol | 1.87 ± 0.11 kcal/mol
SAGGNKEHKVTLEIYIMMWPDPDNGQPYPMPLEIEAPYKNNDPEAAEADIKELLKEIPIPPWMKDMISAGGS [r16_40_TrROS] | 1.19 ± 0.12 kcal/mol | 0.692 ± 0.15 kcal/mol | 0.988 ± 0.39 kcal/mol
SAGGNMWEQIRMIVRELAKEGHPWITFDKIHKELGRPITPEWREWLRDAGFIEHDPNGSMTFRIPPGASAGG [r13_188_TrROS] | 1.36 ± 0.032 kcal/mol | 0.89 ± 0.1 kcal/mol | 1.17 ± 0.056 kcal/mol
SAGGNPASATVTINEDILVNGSPEEARALVEARAKAEGITITDVTITPVPGDPSVYRVSATFSKTLASAGGS [r8_479_JUSTAS] | 1.91 ± 0.038 kcal/mol | 1.9 ± 0.1 kcal/mol | 1.87 ± 0.15 kcal/mol
SAGGNRIMFFFDTPEQAREIAKELAKNFPGYKLDVEVHTQEMKVKDPDNGEEQRYPMVMVEIEIKPPSAGGS [r16_828_TrROS] | 1.6 ± 0.049 kcal/mol | 1.44 ± 0.13 kcal/mol | 1.52 ± 0.17 kcal/mol
SAGGNWKIRNPKNGRTIEIDNFNPGNGMFRVKVWNPNGNKEEHPIPGSLEEILEFLQKKGWPVEIERSAGGS [r16_748_TrROS] | 0.27 ± 0.21 kcal/mol | 0.888 ± 0.2 kcal/mol | 0.626 ± 0.23 kcal/mol
SAGGNWPMRIKIEDPGEEKTIPIPITKVEPNPPPGKLMIFWPDGWVLTFDPKNWRIKKIEPMPDPDEMSAGG [r13_636_TrROS] | 0.942 ± 0.084 kcal/mol | 0.822 ± 0.13 kcal/mol | 1.05 ± 0.37 kcal/mol
SAGGNWRIRVKIEGPDGKTVNHWFWIPNLEDLLSFIQSQPGPKIKDVEIEPPPKDKQYYIPFTMTIPPSAGG [r13_796_TrROS] | 1.72 ± 0.031 kcal/mol | 1.87 ± 0.11 kcal/mol | 1.8 ± 0.11 kcal/mol

Sequence | folding stability dG unfold [1] | folding stability dG unfold [2] | folding stability dG unfold [3]
SAGGPDDMKIIEETTIRFPENGMQFNIRIYKLPDNDVFIEAEMIMPNGKPVGRMEARVPNGKPIEIPFSAGG [r13_573_TrROS] | 0.854 ± 0.04 kcal/mol | 1.64 ± 0.12 kcal/mol | 1.36 ± 0.087 kcal/mol
SAGGPDLVPVARAVYRIDVPPDRTAEEVRREIEERLRPLGVRRVVVPVFYDPERGYLLVVAEVYRSPEESAG [r5_924_TrMRF] | 1.82 ± 0.036 kcal/mol | 2.17 ± 0.1 kcal/mol | 2.06 ± 0.081 kcal/mol
SAGGPEIRLRVRRPVRLTRRELLPDGTWRTLPARPGYEELEITFTGPEETARRLREELERLGYEVEEVSAGG [r13_452_TrMRF] | 1.76 ± 0.056 kcal/mol | 2.84 ± 0.066 kcal/mol | 2.44 ± 0.12 kcal/mol
SAGGPEIVKLDFTLDPNGNLVFTFELKDGTKYEIKINPENPTIEIKEIEKIEPKPIPEDDPELLKEKSAGGS [r16_482_TrMRF] | 1.54 ± 0.17 kcal/mol | 3.24 ± 0.059 kcal/mol | 2.49 ± 0.78 kcal/mol
SAGGPENARPVTFTVTLPDGDVVPITVTEHPDGTVTVTVTVLRFDGAEPVPATATITVPAEVVRRLFSAGGS [r16_470_TrMRF] | 2.15 ± 0.035 kcal/mol | 2.636 ± 0.023 kcal/mol | 2.48 ± 0.034 kcal/mol
SAGGPEVKILSKSYNPEKNTVTYNLEVYYGGKKYGALAEIHYDPKTGKYTITVYYPDKPDYKETLTFNSAGG [r13_615_TrMRF] | 1.91 ± 0.077 kcal/mol | 3.03 ± 0.079 kcal/mol | 2.58 ± 0.21 kcal/mol
SAGGPEVVLTVTVKVPPEMTPEEVAQRLADELRKKYPDLKVEVVSVEYDEETKEVTVTIRVTYAPPPSAGGS [r8_26_TrROS_Hall] | 4.97 ± 0.64 kcal/mol | 4.05 ± 0.16 kcal/mol | 4.45 ± 0.14 kcal/mol
SAGGPFRIEDISIQRDPDNGKLTIIIPFPAPPGQEIKIKVRDPGNGKEKKFDMKVEPLPNGYLTMTISAGGS [r8_195_TrROS] | 1.82 ± 0.14 kcal/mol | 2.17 ± 0.11 kcal/mol | 1.91 ± 0.21 kcal/mol
SAGGPFYLRIKIVDEDGKEITYMFPAPADEAEEEIEELLPGWPLKIDEVERFPGEPGYIMVTIKIPPNSAGG [r13_832_TrROS] | 1.63 ± 0.051 kcal/mol | 2.07 ± 0.17 kcal/mol | 1.97 ± 0.12 kcal/mol
SAGGPGEEYKHPNGMAMRRDPENGKVEMRKVPPIPIEIKIEIDPALGWIRLSITIPNGKKIEFTFPFSAGGS [r16_453_TrROS] | 2.36 ± 0.052 kcal/mol | 4.11 ± 0.32 kcal/mol | 3.32 ± 0.2 kcal/mol
SAGGPGMKMEPIAQIEFPGGRKITIHRMEMPNGNKMVNVNIMNPNGKTKTVMVPMGDIDEAIDALKLSAGGS [r16_588_TrROS] | 1.65 ± 0.036 kcal/mol | 1.04 ± 0.07 kcal/mol | 1.29 ± 0.12 kcal/mol
SAGGPGTREVEITIPADELREEHPNLTDEELVEEVMELARGIAQEQGYPIKKVDITHDKDGWVTIKLSAGGS [r8_368_TrROS] | 0.383 ± 0.091 kcal/mol | 0.152 ± 0.11 kcal/mol | 0.322 ± 0.16 kcal/mol
SAGGPGWQRIAKWEIPLPNGKDITIEPYYVNPNNNHYMYEIEIGDGKEIPFWVPPGDSPEDALDAILKSAGG [r13_470_TrROS] | -0.194 ± 0.2 kcal/mol | -0.126 ± 0.32 kcal/mol | -0.118 ± 0.16 kcal/mol
SAGGPGWRTINIPVWFKPGDSLDEIEEKARELVDPIADRNGLDIEVNIEVERDPDGYYRFNVQITVPSAGGS [r16_279_TrROS] | 1.27 ± 0.097 kcal/mol | 2.34 ± 0.071 kcal/mol | 1.96 ± 0.13 kcal/mol
SAGGPITITIKTKNGKELELKLPGIRSVQFNPDSVWIAFKFPDQYIMIQINPPNGKIMIQIMPPGQPISAGG [r13_392_TrROS] | 2.47 ± 0.097 kcal/mol | 3.66 ± 0.053 kcal/mol | 3.18 ± 0.14 kcal/mol
SAGGPKITIMWPEGMPPEELENFLKKLNPNYKVEYRPMPPEDMKDMPPGDVVISIPFDGRYWYLRIKPSAGG [r13_649_TrROS] | 1.65 ± 0.048 kcal/mol | 1.99 ± 0.095 kcal/mol | 1.88 ± 0.081 kcal/mol
SAGGPKKITIHITEMYRNKNGPYYYRVEIRDGGKPKEYNFPFDSPDEMLDNIEKLADELGLKVEIEPFSAGG [r13_750_TrROS] | 1.55 ± 0.06 kcal/mol | 2.16 ± 0.16 kcal/mol | 1.88 ± 0.22 kcal/mol
SAGGPKWVIIIEIEIKPKNNGKEFEFTFVFPPGQTLDEIKSFIKEFAPPGHKVELKIEDIQLVPPDDSAGGS [r16_393_TrROS] | 2.2 ± 0.15 kcal/mol | 2.41 ± 0.039 kcal/mol | 2.4 ± 0.12 kcal/mol
